# Measurements published in publication PMC8831599, “Defining molecular glues with a dual-nanobody cannabidiol sensor” (Nature Communications, 2022).
# Ends that are not written are not given here.
# T1: GST-TIR1-ASK1 complex (Arabidopsis thaliana, UniProt Q570C0 1-594; Q39255 1-160)
# T1 construct: F-box protein TIR1, Arabidopsis thaliana; ASK1 (SKP1 homologue), Arabidopsis thaliana; also called GST-tagged TIR1
# T1 sequence (looked up) 1: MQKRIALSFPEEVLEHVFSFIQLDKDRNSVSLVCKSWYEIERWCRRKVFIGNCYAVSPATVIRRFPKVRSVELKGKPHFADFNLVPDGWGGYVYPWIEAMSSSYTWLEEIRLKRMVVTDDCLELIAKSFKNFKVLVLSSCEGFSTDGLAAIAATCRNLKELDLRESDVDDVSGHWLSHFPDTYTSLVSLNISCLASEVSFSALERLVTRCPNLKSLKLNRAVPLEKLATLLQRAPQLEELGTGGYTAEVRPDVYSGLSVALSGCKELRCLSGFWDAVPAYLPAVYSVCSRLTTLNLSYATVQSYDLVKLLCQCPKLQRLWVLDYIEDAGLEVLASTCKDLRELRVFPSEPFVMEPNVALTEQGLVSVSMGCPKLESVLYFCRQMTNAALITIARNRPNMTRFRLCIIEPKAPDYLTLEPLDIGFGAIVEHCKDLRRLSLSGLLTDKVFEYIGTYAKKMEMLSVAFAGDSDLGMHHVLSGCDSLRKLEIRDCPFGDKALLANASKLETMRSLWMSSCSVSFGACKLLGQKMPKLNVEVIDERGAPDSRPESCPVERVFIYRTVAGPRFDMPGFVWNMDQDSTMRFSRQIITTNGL
# T1 sequence (looked up) 2: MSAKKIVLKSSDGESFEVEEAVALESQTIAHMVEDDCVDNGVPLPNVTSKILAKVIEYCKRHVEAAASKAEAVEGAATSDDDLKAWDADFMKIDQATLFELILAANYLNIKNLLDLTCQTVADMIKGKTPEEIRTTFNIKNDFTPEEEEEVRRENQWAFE
# B1: IAA7 degron peptide, non-labeled (peptide)
# chain: QVVGWPPVRNYRK
# modifications: synthetic peptide, unlabelled; limits not given, taken from the IAA7 degron peptide of the TIR1-ASK1 crystal structures (13-mer, PDB 2P1Q)
# B2: Biotin-labeled Avi-IKZF1 ZF2-3 (141-196) (domain or fragment, human, UniProt Q13422 141-196, looked up)
# chain: {Avi‑tag(biotin)}-GERPFQCNQCGASFTQKGNLLRHIKLHSGEKPFKCHLCNYACRRRDALTGHLRTHS
# modifications: cysteine pairing not given here
# notes: human IKZF1 (Ikaros), zinc fingers 2-3, residues 141-196; also called biotinylated IKZF1^ZF2-3; not shown: GST, N-terminal, cleaved; Avi-tag, N-terminal, kept
# B3: Biotin-labeled Avi-CK1α (enzyme, human, UniProt P48729 1-337, looked up)
# chain: MASSSGSKAEFIVGGKYKLVRKIGSGSFGDIYLAINITNGEEVAVKLESQKARHPQLLYESKLYKILQGGVGIPHIRWYGQEKDYNVLVMDLLGPSLEDLFNFCSRRFTMKTVLMLADQMISRIEYVHTKNFIHRDIKPDNFLMGIGRHCNKLFLIDFGLAKKYRDNRTRQHIPYREDKNLTGTARYASINAHLGIEQSRRDDMESLGYVLMYFNRTSLPWQGLKAATKKQKYEKISEKKMSTPVEVLCKGFPAEFAMYLNYCRGLRFEEAPDYMYLRQLFRILFRTLNHQYDYTFDWTMLKQKAAQQAASSSGQGQQAQTPTGKQTDKTKSNMKGF
# modifications: biotin on the Avi-tag (BirA-catalyzed)
# notes: human casein kinase 1 alpha (CK1α); also called CK1a; source: Hi5 insect cells, purified (Ni-NTA, TEV, cation exchange, SEC, BirA biotinylation, SEC); not shown: His-Set3, N-terminal, cleaved; Avi-tag, N-terminal, kept
# B4: Label-free IKZF1 ZF2-3 (141-196) (domain or fragment, human, UniProt Q13422 141-196, looked up)
# chain: GERPFQCNQCGASFTQKGNLLRHIKLHSGEKPFKCHLCNYACRRRDALTGHLRTHS
# notes: human IKZF1 (Ikaros), zinc fingers 2-3, residues 141-196; also called Avi-IKZF1^ZF2-3; not shown: GST, N-terminal, cleaved
# Key:
# Conditions in all cases: both partners purified
# GST-TIR1-ASK1 complex [1] = target: T1, GST-TIR1-ASK1 complex; assay: AlphaScreen or HTRF; competition without auxin: 0.9 nM GST-TIR1 on acceptor beads, 8.3 nM biotinylated IAA7 degron peptide on donor beads, label-free IAA7 degron peptide titrated
# GST-TIR1-ASK1 complex [2] = target: T1, GST-TIR1-ASK1 complex; assay: BLI; TIR1 and IAA7 degron without auxin; biotinylated IAA7 on streptavidin probe or GST-TIR1 on anti-GST probe (not told which); 30 °C; 25 mM HEPES pH 7.4, 100 mM NaCl, 1 mM TCEP, 0.1% Tween-20, 0.05 mg/mL BSA
# [3] = target: T2, DDB1-CRBN complex (CRBN Δ1-40 with full-length DDB1), tag-free (human, UniProt Q96SW2 41-442; Q16531 1-1140); assay: BLI; biotinylated IKZF1 ZF2-3 or CK1α on streptavidin probe, tag-free DDB1–CRBN as analyte, no IMiD; 30 °C; 25 mM HEPES pH 7.4, 100 mM NaCl, 1 mM TCEP, 0.1% Tween-20, 0.05 mg/mL BSA
# T2 construct: human cereblon (CRBN) lacking residues 1-40; human DDB1; also called CRBN–DDB1 complex; CRBN in complex with full-length DDB1; source: Hi5 insect cells, co-expressed, purified (Ni-NTA, TEV, anion exchange, SEC); not shown: SUMO-tag, N-terminal, cleaved; His-Msb-tag, N-terminal, cleaved
# His-DDB1–CRBN complex = target: T3, His-DDB1–CRBN complex (human, UniProt Q96SW2 41-442; Q16531 1-1140); assay: AlphaScreen or HTRF; competition without pomalidomide: 0.9 nM His-DDB1–CRBN on acceptor beads, 8.3 nM biotinylated IKZF1 ZF2-3 on donor beads, label-free IKZF1 ZF2-3 titrated
# T3 construct: human cereblon (CRBN) lacking residues 1-40; human DDB1; Held on AlphaScreen acceptor beads by the His-tag; source: Hi5 insect cells, co-expressed, purified (Ni-NTA); not shown: His-Msb-tag, N-terminal, kept
binder,measurement,setting,value
B1,IC50,GST-TIR1-ASK1 complex [1],18 to 20 µM
same,Kd,GST-TIR1-ASK1 complex [2],18.5 µM
B2,Kd,[3],223 nM
B3,Kd,[3],2300 nM
B4,IC50,His-DDB1–CRBN complex,200 to 300 nM
